Measured values published in US20230082465A1 (published 2023).

How the values were obtained:
[1] = target: T1, Fibrinogen Fragment D (human, UniProt P02671 124-216; P02675 164-491; P02679 89-437); assay: BLI
T1 chain 1: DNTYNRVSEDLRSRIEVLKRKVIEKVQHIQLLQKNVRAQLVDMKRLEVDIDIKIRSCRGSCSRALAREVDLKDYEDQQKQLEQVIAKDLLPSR
T1 chain 2: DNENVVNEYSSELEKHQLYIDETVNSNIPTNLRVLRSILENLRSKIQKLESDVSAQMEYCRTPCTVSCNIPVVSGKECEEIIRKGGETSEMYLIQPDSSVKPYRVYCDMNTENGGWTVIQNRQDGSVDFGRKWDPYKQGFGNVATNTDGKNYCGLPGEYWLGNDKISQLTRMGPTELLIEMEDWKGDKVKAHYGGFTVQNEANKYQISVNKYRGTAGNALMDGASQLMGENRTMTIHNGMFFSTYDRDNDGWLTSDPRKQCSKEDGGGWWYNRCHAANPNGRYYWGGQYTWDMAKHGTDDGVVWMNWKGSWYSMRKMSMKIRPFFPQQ
T1 chain 3: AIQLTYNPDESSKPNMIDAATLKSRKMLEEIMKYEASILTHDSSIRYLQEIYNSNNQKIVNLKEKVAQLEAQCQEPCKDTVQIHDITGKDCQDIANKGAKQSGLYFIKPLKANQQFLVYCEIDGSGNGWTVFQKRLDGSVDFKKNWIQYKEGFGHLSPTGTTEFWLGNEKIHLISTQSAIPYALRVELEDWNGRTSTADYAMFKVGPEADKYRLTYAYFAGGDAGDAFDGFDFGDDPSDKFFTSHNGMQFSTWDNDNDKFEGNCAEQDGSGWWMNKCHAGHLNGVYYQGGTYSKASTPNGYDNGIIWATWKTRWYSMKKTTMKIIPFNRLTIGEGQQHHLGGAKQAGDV

[2] = target: T2, Fragment DD from fibrin (human, UniProt P02671 124-216; P02675 164-491; P02679 89-437); assay: BLI
T2 chain 1: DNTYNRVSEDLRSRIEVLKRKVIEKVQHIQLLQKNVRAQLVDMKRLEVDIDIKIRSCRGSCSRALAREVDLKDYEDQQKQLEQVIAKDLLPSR
T2 chain 2: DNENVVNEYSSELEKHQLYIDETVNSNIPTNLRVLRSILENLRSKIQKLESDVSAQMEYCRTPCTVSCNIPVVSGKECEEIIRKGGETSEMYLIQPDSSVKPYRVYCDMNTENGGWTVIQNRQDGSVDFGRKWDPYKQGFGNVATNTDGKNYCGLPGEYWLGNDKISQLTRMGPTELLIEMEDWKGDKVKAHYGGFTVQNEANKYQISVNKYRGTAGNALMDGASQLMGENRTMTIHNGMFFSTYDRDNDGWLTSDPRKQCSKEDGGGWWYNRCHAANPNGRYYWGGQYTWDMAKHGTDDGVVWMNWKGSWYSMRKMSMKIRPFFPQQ
T2 chain 3: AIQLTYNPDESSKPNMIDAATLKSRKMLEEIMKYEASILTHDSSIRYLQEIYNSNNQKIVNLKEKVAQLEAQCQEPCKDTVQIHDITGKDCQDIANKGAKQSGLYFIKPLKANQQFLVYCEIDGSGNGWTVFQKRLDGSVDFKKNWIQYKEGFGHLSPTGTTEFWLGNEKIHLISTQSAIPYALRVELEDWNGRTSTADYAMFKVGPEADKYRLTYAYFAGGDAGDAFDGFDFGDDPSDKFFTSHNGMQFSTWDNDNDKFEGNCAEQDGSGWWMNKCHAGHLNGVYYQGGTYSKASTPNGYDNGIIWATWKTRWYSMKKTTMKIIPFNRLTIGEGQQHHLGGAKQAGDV

Kd [1]: 36.8 nM | Kd [2]: 0.417 nM
B1: recombinant antibody #12 (antibody, V domains shown)
VH: QVQLQQPGAEVVRPGASVKLSCKASGYSFTSYWIHWLKQGPHQGLEWIGRIDPDDSETHYNQKFKDKALLTVDKSSSTAYMQLRSLTSEDSAVYYCARTNWDAWFAYWGQGTLVTVSA
VL: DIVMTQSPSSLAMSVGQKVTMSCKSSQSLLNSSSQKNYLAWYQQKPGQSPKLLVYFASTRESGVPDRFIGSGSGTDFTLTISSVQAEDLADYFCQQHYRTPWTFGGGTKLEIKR
